In patent US20260274985A1 (MYTHIC THERAPEUTICS, published 2026):

Experiments:
[1] = biological target: T1, Human TROP2 Protein, His Tag (Acro Biosystems) (human, UniProt P09758 27-274); experiment: Octet BLI, IgG on anti-human Fc sensor; 3 = No binding
T1 construct: Bought antigen used at 50 nM in the Octet screen; also called TACSTD2; not shown: His tag
T1 sequence (looked up): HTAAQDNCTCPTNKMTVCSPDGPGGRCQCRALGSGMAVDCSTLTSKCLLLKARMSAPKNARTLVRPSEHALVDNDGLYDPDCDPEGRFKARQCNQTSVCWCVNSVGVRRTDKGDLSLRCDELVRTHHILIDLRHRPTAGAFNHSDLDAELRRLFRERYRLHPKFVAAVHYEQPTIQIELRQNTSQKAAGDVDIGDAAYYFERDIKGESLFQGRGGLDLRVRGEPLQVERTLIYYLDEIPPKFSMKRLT

[2] = biological target: T1, Human TROP2 Protein, His Tag (Acro …); experiment: Octet BLI, IgG on anti-human Fc sensor, 50 nM TROP2; 1 = pH dependent
[3] = biological target: T2, Human TROP2 Protein, His Tag (Acro Biosystems) (human, UniProt P09758 27-274); experiment: BLI (Octet), Ab on anti-human Fc sensor, 50 nM TROP2-His; 2 = No change vs parent
T2 construct: Bought protein; not shown: His tag
T2 sequence (looked up): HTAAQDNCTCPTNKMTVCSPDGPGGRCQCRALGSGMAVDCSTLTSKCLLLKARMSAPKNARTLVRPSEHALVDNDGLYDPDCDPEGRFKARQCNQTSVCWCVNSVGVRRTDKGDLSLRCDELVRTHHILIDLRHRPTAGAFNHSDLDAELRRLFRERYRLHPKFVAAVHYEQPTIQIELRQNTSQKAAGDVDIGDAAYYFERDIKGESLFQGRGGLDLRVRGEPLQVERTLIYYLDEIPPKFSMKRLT
Description: The resulting diluted supernatants were then captured on an anti-human Fc sensor (Forte Bio). A baseline was established using 1×PBST (50 mM Potassium Phosphate Buffer+150 mM NaCl+0.05% Tween 20) pH 7.4, and the sensor was associated with 50 nM of TROP2 (Human TROP2 Protein, His Tag, Acro Biosystems) in 1×PBST pH 7.4 for 120 sec to generate an association curve. In the dissociation phase, the antibody-antigen complex on the sensor was exposed to 1×PBST pH 7.4 or pH 5.4, for 300 sec. Association and dissociation phase curves were examined for the starting ABPC antibody (with no substitutions) and each corresponding antibody variant at pH 5.4 and pH 7.4 to inform on two criteria: a) enhanced dissociation (i.e., higher koff values) at pH 5.4 due to histidine or alanine substitution compared to the starting ABPC, (with no substitutions), and b) reduced dissociation at pH 7.4 (i.e., lower koff values) compared to pH 5.4 in the antibody variant itself and with the starting ABPC (with no substitutions). […] It was also noted that while some mutations obliterated TROP2 binding, others were tolerated with little or n change in TROP2 binding kinetics.
For each such table, the “MYT #” provides an identifier for each antigen binding protein (ABP), and the values from each column (reading along each row) provide characteristics and data associated with each ABP. […]

[4] = biological target: T3, Human TROP2 Protein, His Tag (Acro Biosystems) (human, UniProt P09758 27-274); experiment: Octet BLI, IgG on anti-human Fc sensor, 50 nM TROP2-His; 1 = pH dependent
T3 construct: not shown: His tag
T3 sequence (looked up): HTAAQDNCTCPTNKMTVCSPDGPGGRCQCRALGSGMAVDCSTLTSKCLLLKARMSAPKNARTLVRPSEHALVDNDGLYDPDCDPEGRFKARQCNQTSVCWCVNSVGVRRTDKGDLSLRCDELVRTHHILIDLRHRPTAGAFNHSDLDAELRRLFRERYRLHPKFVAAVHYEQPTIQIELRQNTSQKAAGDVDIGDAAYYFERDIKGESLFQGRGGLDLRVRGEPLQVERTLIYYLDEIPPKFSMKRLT

[5] = biological target: T4, Human TROP2 Protein, His Tag (Acro Biosystems) (human, UniProt P09758 27-274); experiment: BLI (Octet), antibody on anti-human Fc sensor, 50 nM human TROP2-His, dissociation at pH 7.4 or 5.4; grade 2 = No change vs parent
T4 construct: Bought protein; also called TACSTD2; not shown: His tag
T4 sequence: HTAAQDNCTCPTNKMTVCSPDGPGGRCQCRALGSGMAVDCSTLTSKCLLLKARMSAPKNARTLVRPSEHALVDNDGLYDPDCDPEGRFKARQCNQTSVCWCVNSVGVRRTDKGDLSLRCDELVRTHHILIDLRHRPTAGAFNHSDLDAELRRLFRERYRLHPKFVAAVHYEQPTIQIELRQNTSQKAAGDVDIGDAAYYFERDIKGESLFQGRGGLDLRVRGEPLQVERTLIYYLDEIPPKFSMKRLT

[6] = biological target: T4, Human TROP2 Protein, His Tag (Acro …); experiment: BLI (Octet), antibody on anti-human Fc sensor, 50 nM human TROP2-His, dissociation at pH 7.4 or 5.4; grade 1 = pH dependent
[7] = biological target: T3, Human TROP2 Protein, His Tag (Acro …); experiment: Octet BLI, IgG on anti-human Fc sensor, 50 nM TROP2-His; 2 = No change vs parent
[8] = biological target: T3, Human TROP2 Protein, His Tag (Acro …); experiment: Octet BLI, IgG on anti-human Fc sensor, 50 nM TROP2-His; 1 = pH dependent; remark: listed apart in the source
[9] = biological target: T5, Human TROP2 Protein, His Tag (Acro Biosystems) (human, UniProt P09758 27-274); experiment: BLI (Octet), IgG on anti-human Fc sensor, 50 nM TROP2-His; 1 = pH dependent
T5 construct: also called TACSTD2; not shown: His tag
T5 sequence (looked up): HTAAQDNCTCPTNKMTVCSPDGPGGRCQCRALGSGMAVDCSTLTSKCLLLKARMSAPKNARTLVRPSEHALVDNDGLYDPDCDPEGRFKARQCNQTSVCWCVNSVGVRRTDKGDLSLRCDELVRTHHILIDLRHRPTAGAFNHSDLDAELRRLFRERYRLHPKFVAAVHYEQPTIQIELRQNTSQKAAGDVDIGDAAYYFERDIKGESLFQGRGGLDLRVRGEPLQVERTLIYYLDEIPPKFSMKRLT
Description: After allowing for four days of protein expression, cell culture supernatants were collected, quantified by SDS-PAGE analysis (DNS), and the pH dependence of the variant was evaluated using biolayer interferometry (BLI) on an Octet RED 96e instrument. Briefly, cell culture supernatants were diluted based on qualitative expression level of the variant determined by visual examination of SDS-PAGE gels, 5 μL of cell culture supernatant was diluted into 195 μL of 1×PBST, pH 7.4 for high expressors, 25 μL of cell culture supernatant was diluted into 175 μL of 1×PBST, pH 7.4 for medium expressors and 100 μL of cell culture supernatant was diluted into 100 μL of 1×PBST, pH 7.4 for low expressors for loading onto the sensor tips. The resulting diluted supernatants were then captured on an anti-human Fc sensor (Forte Bio). A baseline was established using 1×PBST (50 mM Potassium Phosphate Buffer+150 mM NaCl+0.05% Tween 20) pH 7.4, and the sensor was associated with 50 nM of TROP2 (Human TROP2 Protein, His Tag, Acro Biosystems) in 1×PBST pH 7.4 for 120 sec to generate an association curve. In the dissociation phase, the antibody-antigen complex on the sensor was exposed to 1×PBST pH 7.4 or pH 5.4, for 300 sec. […]

[10] = biological target: T6, Human TROP2 Protein, His Tag (Acro Biosystems) (human, UniProt P09758 27-274); experiment: BLI (Octet) [2/2]
T6 construct: not shown: His tag
T6 sequence (looked up): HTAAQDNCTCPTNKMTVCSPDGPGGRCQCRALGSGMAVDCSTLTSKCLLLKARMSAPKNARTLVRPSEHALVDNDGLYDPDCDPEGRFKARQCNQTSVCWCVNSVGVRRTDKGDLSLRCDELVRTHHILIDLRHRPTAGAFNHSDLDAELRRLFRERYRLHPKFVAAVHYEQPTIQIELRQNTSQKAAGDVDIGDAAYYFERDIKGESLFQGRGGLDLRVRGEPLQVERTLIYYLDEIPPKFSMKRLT

B1: MYT11717 (antibody, V domains shown)
VH: QVQLQESGPGLVKPSETLSLTCTVSGGSISSYGVHWIRQPPGKGLEWIGVIHTSGVTDYNSALMGRVTISVDTSKNQFSLKLSSVTAADTAVYYCARDGDYDRYTMDYWGQGTLVTVSS
VL: DIVMTQSPDSLAVSLGERATINCRASKSVSTSGYSYMHWYQQKPGQPPKLLIYLASNLESGVPDRFSGSGSGTDFTLTISSLQAEDVAVYYCQHSRELPYTFGQGTKLEIK
notes: hu7E6SVG variant, His at HCV position 52 (H2 03); screened as IgG in Expi293 supernatant
B1: no binding (tested: 50 nM) [1].

B2: MYT11773 (antibody, V domains shown)
VH: QVQLQESGPGLVKPSETLSLTCTVSGGSISSYGVHWIRQPPGKGLEWIGVIWTSGVTDYNSALMGRVTISVDTSKNQFSLKLSSVTAADTAVYYCARDGDYDRYTMDYWGQGTLVTVSS
VL: DIVMTQSPDSLAVSLGERATINCRASKSVSTSGYSYMHWYQQKPGQPPKLLIYLASNLESGVPDRFSGSGSGTDFTLTISSLQAEDVAVYYCQHSRELPHTFGQGTKLEIK
notes: hu7E6SVG variant, His at LCV position 100 (L3 08); screened as IgG in Expi293 supernatant
B2: binds [2].

B3: MYT11583 (antibody, V domains shown)
VH: QVQLQQSGSELKKPGASVKVSCKASGYTFTNYGMNWVKQAPGQGLKWMGWINTYTHEPTYTDDFKGRFAFSLDTSVSTAYLQISSLKADDTAVYFCARGGFGSSYWYFDVWGQGSLVTVSS
VL: DIQLTQSPSSLSASVGDRVSITCKASQDVSIAVAWYQQKPGKAPKLLIYSASYRYTGVPDRFSGSGSGTDFTLTISSLQPEDFAVYYCQQHYITPLTFGAGTKVEIK
notes: Sacituzumab variant, His at HCV position 56 (H2 07)
B3: binds [3].

B4: MYT12399 (antibody, V domains shown)
VH: QVQLVQSGAEVKKPGASVKVSCKASGYTFTTAGMQWVRQAPGQGLEWMGWINTHSGVPKYAEDFKGRVTISADTSTSTAYLQLSSLKSEDTAVYYCARSGFGSSYWYFDVWGQGTLVTVSS
VL: DIQMTQSPSSLSASVGDRVTITCKASQHVSTAVAWYQQKPGKAPKLLIYSHSYRYTGVPSRFSGSGSGTDFTLTISSLQPEDFAVYYCHQHYITPLTFGQGTKLEIK
notes: datopotamab VL 28, 51, 89 substituted
B4: binds [4].

B5: MYT12452 (hu7E6SVG variant, LCV substitutions at 94, 101 (Ala at 94)) (antibody, V domains shown)
VH: QVQLQESGPGLVKPSETLSLTCTVSGGSISSYGVHWIRQPPGKGLEWIGVIWTSGVTDYNSALMGRVTISVDTSKNQFSLKLSSVTAADTAVYYCARDGDYDRYTMDYWGQGTLVTVSS
VL: DIVMTQSPDSLAVSLGERATINCRASKSVSTSGYSYMHWYQQKPGQPPKLLIYLASNLESGVPDRFSGSGSGTDFTLTISSLQAEDVAVYYCQASRELPYHFGQGTKLEIK
notes: Full IgG in Expi293 supernatant
B5: binds [5].

B6: MYT12470 (hu7E6SVG variant, LCV substitutions at 93, 94, 97 (Ala at 94)) (antibody, V domains shown)
VH: QVQLQESGPGLVKPSETLSLTCTVSGGSISSYGVHWIRQPPGKGLEWIGVIWTSGVTDYNSALMGRVTISVDTSKNQFSLKLSSVTAADTAVYYCARDGDYDRYTMDYWGQGTLVTVSS
VL: DIVMTQSPDSLAVSLGERATINCRASKSVSTSGYSYMHWYQQKPGQPPKLLIYLASNLESGVPDRFSGSGSGTDFTLTISSLQAEDVAVYYCHASRHLPYTFGQGTKLEIK
notes: as for B5
B6: binds [6].

B7: MYT12296 (antibody, V domains shown)
VH: QVQLQQSGSELKKPGASVKVSCKASGYTFTNHGMNWVKQAPGQGLKWMGWINTYTGEPTYTHDFKGRFAFSLDTSVSTAYLQISSLKADDTAVYFCARGGFGSSYWYFDVWGQGSLVTVSS
VL: DIQLTQSPSSLSASVGDRVSITCKASQDVSIAVAWYQQKPGKAPKLLIYSASYRYTGVPDRFSGSGSGTDFTLTISSLQPEDFAVYYCQQHYITPLTFGAGTKVEIK
notes: sacituzumab VH 32, 62 -> H
B7: binds [7].

B8: MYT12317 (antibody, V domains shown)
VH: QVQLQQSGSELKKPGASVKVSCKASGYTFTNYGMNWVKQAPGQGLKWMGWINTYTGEPTYTDHFHGRFAFSLDTSVSTAYLQISSLKADDTAVYFCARGGFGSSYWYFDVWGQGSLVTVSS
VL: DIQLTQSPSSLSASVGDRVSITCKASQDVSIAVAWYQQKPGKAPKLLIYSASYRYTGVPDRFSGSGSGTDFTLTISSLQPEDFAVYYCQQHYITPLTFGAGTKVEIK
notes: sacituzumab VH 63, 65 -> H
B8: binds [8].

B9: MYT13385 (antibody, V domains shown)
VH: QVQLQQSGSELKKPGASVKVSCKASGYTFTNYGMNWVKQAPGQGLKWMGWINTYTGEPTYTHDFKGRFAFSLDTSVSTAYLQISSLKADDTAVYFCARGGFGSSYWYFDVWGQGSLVTVSS
VL: DIQLTQSPSSLSASVGDRVSITCKASQDVHIAVAWYQQKPGKAPKLLIYSAHYRYTGVPDRFSGSGSGTDFTLTISSLQPEDFAVYYCQQHYITPLTFGAGTKVEIK
notes: Sacituzumab HC-LC pairing variant
B9: binds [9].

B10: MYT13257 (antibody, V domains shown)
VH: QVQLVQSGAEVKKPGASVKVSCKASGYTFTTAGMQWVRQAPGQGLEWMGWINTHSGVPKYAEDFKGRVTISADTSTSTAYLQLSSLKSEDTAVYYCAHSGFGSSYWYFDVWGQGTLVTVSS
VL: DIQMTQSPSSLSASVGDRVTITCKASQDHSTAVAWYQQKPGKAPKLLIYSASYRYTGVPSRFSGSGSGTDFTLTISSLQPEDFAVYYCQQHYITPLTFGQGTKLEIK
notes: Full-length IgG from Expi293 supernatant; also called datopotamab heavy chain and light chain pairing variant
B10: binds [10].
